Test results: publication PMC5350311

Assays:
[1] = target: protein phosphatase 1 (rabbit) (UniProt P62139)
[2] = target: protein phosphatase 1 (rabbit) (UniProt P62139); remark: listed apart in the source

Sequence of UniProt P62139 (P62139 whole entry): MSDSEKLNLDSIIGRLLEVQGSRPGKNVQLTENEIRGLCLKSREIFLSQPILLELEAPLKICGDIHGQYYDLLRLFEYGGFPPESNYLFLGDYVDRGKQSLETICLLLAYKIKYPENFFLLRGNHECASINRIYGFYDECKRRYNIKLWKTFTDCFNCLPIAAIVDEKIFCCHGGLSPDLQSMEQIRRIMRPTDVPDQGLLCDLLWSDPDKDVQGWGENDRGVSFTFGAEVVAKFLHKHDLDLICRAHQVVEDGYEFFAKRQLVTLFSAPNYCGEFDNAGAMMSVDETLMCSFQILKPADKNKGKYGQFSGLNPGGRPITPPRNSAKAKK

Substance	IC50 of inhibition of PP1 activity (colorimetric protein phosphatase inhibition assay, p-nitrophenyl disodium orthophosphate, 25.0°C, pH 7.4) [1] [μg/L]	IC50 of inhibition of PP1 activity (inhibition curves, colorimetric protein phosphatase inhibition assay) [2] [µM]
glutathione conjugate of MCLR (peptide)	86.6	86.6
glutathione conjugate of MCRR (peptide)	98.7	98.7
